Reference: PMC7112112

How the values were obtained:
[1] = RT-qPCR of IBV gRNA and sgRNA2; details: glycan lost; control: WTrIBV
[2] = plaque size and shape, Vero cells; details: glycan lost; control: WTrIBV
[3] = indirect immunofluorescence, infected Vero cells; details: glycan lost; control: WTrIBV
[4] = 20-60% sucrose gradient ultracentrifugation, anti-M blot; details: glycan lost; control: WTrIBV
[5] = growth curve, TCID50, Vero cells; details: glycan lost; control: WTrIBV
[6] = co-expression with E in COS-7, pelleted VLP blot; details: glycan lost; control: MWT

B1: IBV M protein (membrane protein): rN3D/N6D (protein)
parent chain: MPNETNCTLDFEQSVQLFKEYNLFITAFLLFLTIILQYGYATRSKVIYTLKMIVLWCFWPLNIAVGVISCTYPPNTGGLVAAIILTVFACLSFVGYWIQSIRLFKRCRSWWSFNPESNAVGSILLTNGQQCNFAIESVPMVLSPIIKNGVLYCEGQWLAKCEPDHLPKDIFVCTPDRRNIYRMVQKYTGDQSGNKKRFATFVYAKQSVDTGELESVATGGSSLYT
no change: other: viral replication [1] | other: viral replication [2] | localisation_or_trafficking [3] | other: virion sedimentation [4] | other: viral replication [5]

B2: IBV M protein (membrane protein): MN3D/N6D (protein)
parent chain: B1 parent chain
no change: other: VLP formation [6]
